{"source": "paper PMC5680296", "about": "“Tsg101 chaperone function revealed by HIV-1 assembly inhibitors” (Nature Communications, 2017)", "binders": {"B1": {"name": "Tsg101 UEV domain (residues 2–145) (domain or fragment, human)", "chain": "GAVSESQLKKMVSKYKYRDLTVRETVNVITLYKDLKPVLDSYVFNDGSSRELMNLTGTIPVPYRGNTYNIPICLWLLDTYPYNPPICFVKPTSSMTIKTGKHVDANGKIYLPYLHEWKHPQSDLLGLIQVMIVVFGDEPPVFSRP", "notes": "non-native glycine at the N-terminus (residue 1) left by TEV protease cleavage; Tsg101, ubiquitin E2 variant (UEV) domain, residues 2-145; the word human is printed for the full-length Tsg101 plasmids, not for this construct itself; also called Tsg101^2–145; 15N-Tsg101 UEV; not shown: His6, N-terminal, cleaved"}}, "settings_in_all_cases": "both partners purified", "key": {"[1]": {"target": "T1, wild-type ubiquitin (UniProt P0CG48 1-76)", "T1 construct": "ubiquitin, wild type, unlabeled, encoded in pET-21a; source: E. coli BL21-Gold(DE3), purified (acid precipitation, HiTrap SP ion exchange, S75 gel filtration)", "assay": "NMR titration; HSQC spectra of 15N-labelled Tsg101 UEV or UEV-N16 (200 μM) at 1:0, 1:0.5 and 1:1 ratio to unlabeled ubiquitin; 20 mM potassium phosphate, 50 mM NaCl, pH 5.8"}, "[2]": {"target": "B1", "assay": "NMR titration; chemical shift perturbations of 15N-labelled Tsg101 UEV or UEV-N16 (200 μM) on addition of PTAP peptide at a final 1:1 ratio; 20 mM potassium phosphate, 50 mM NaCl, pH 5.8"}, "[3]": {"target": "T2, Tsg101 UEV-N16 complex (UEV domain with N16 covalently attached at C73) (human, UniProt Q99816 2-145, C73 covalently attached (disulfide linkage) to the activated sulfenamide form of N16 (tenatoprazole))", "T2 construct": "non-native glycine at the N-terminus (residue 1) left by TEV protease cleavage; Tsg101, ubiquitin E2 variant (UEV) domain, residues 2-145, as m1; same polypeptide as m1; also called N16-Tsg101 UEV complex; Tsg101-N16; source: E. coli Rosetta 2 (DE3) pLysS, purified as m1, then incubated with N16 in a 10:1 ratio (N16 excess); not shown: His6, N-terminal, cleaved", "T2 sequence": "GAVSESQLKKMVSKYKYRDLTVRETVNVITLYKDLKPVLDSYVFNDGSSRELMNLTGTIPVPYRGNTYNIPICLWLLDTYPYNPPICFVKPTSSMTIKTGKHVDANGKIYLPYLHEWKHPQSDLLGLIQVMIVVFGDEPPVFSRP", "assay": "NMR titration; chemical shift perturbations of 15N-labelled Tsg101 UEV or UEV-N16 (200 μM) on addition of PTAP peptide at a final 1:1 ratio; 20 mM potassium phosphate, 50 mM NaCl, pH 5.8"}}}
{"binder": "B1", "values": [{"measurement": "binding result", "setting": "[1]", "result": "binds"}]}
{"binder": "Ac-NFLQSRPEPTAPPEE-NH2 (also called Gag PTAP peptide; source: synthetic peptide (Bio-Synthesis, Texas))", "note": "[PTAP peptide (Ace-NFLQSRPEPTAPPEE-CONH2)]", "values": [{"measurement": "binding result", "setting": "[2]", "result": "binds"}, {"measurement": "binding result", "setting": "[3]", "result": "binds"}]}
